Results from publication PMC3169560 (PLoS Pathogens, 2011).

Biological target: T1, HIV-1 Env glycoprotein complex (gp120/gp41) with full-length gp41, on HIV-1 particles of proviral clone R9 … (HIV-1 group M subtype B, proviral clone …)
T1 construct: also called WT; wild-type HIV-1; copies: 3 + 3
Assay: immunofluorescence imaging of antibody binding to single immobilised virions; IMMATURE, protease-defective particles (R9.PR- or R9Tr712.PR-) with GFP-Vpr on poly-D-lysine coated dishes; unfixed virions incubated with IgG or CD4-IgG2 (0.25 µg/mL) for 2 h at room temperature, fixed in 2% paraformaldehyde, Cy5 anti-human IgG, confocal microscopy; median average Cy5 intensity per GFP-positive particle; CD4-IgG2 results …
Settings: one partner purified

B1: HIV-1 gp41 mAb 4E10 (full-length IgG) (antibody, V domains shown)
VH: QVQLVQSGAEVKRPGSSVTVSCKASGGSFSTYALSWVRQAPGRGLEWMGGVIPLLTITNYAPRFQGRITITADRSTSTAYLELNSLRPEDTAVYYCAREGTTGWGWLGKPIGAFAHWGQGTLVTVSS
VL: EIVLTQSPGTQSLSPGERATLSCRASQSVGNNKLAWYQQRPGQAPRLLIYGASSRPSGVADRFSGSGSGTDFTLTISRLEPEDFAVYYCQQYGQSLSTFGQGTKVEVK
notes: copies: 2 + 2
fold increase in binding to immature over mature virions, particles with an average intensity above 50 a.u.: 6 fold
median average intensity per particle, PR- image over wild-type image: 1.4 fold
